These results are taken from patent publication US20240132578A1.

Some results are limits rather than exact numbers.

Common to all, as to assay: cell-based or functional assay
Assay [1] deals with HIV-1 92UG005 envelope glycoprotein (Env) (HIV-1).
Assay [2] concerns the target HIV-1 MGRM-C-027 envelope glycoprotein (Env) (HIV-1).
The target in assay [3] is HIV-1 MGRM-D-018 envelope glycoprotein (Env) (HIV-1).
Assay [4] addresses HIV-1 92BR020 envelope glycoprotein (Env) on virus (HIV-1, clade B, isolate 92BR020).
Assay [5] deals with HIV-1 92RW020 envelope glycoprotein (Env) on virus (HIV-1, clade A, isolate 92RW020).
Assay [6] addresses HIV-1 92UG005 envelope glycoprotein (Env) on virus (HIV-1, clade D, isolate 92UG005).
Assay [7] has as its target HIV-1 94UG103 envelope glycoprotein (Env) on virus (HIV-1, clade A, isolate 94UG103).
Assay [8] concerns the target HIV-1 JRCSF envelope glycoprotein (Env) on virus (HIV-1, clade B, isolate JRCSF) (UniProt P20871).
Assay [9] addresses HIV-1 MGRM-D-018 envelope glycoprotein (Env) on virus (HIV-1, clade D, isolate MGRM-D-018).
Assay [10] has as its target HIV-1 94UG103 envelope glycoprotein (Env), clade A pseudovirus (HIV-1).
Assay [11] concerns the target HIV-1 CMU02 envelope glycoprotein (Env), clade AE pseudovirus (HIV-1).
Assay [12] addresses HIV-1 NL43 envelope glycoprotein (Env), clade B pseudovirus (HIV-1).
Assay [13] has as its target HIV-1 Env of isolate 94UG103 (clade A) (HIV-1).
Assay [14] concerns the target HIV-1 Env of pseudovirus DU156 (HIV-1).
In assay [15] the target is HIV-1 envelope glycoprotein (Env) of isolate JRFL (HIV-1).
In assay [16] the target is HIV-1 Env of isolate 92UG005 (subtype D) (HIV-1).
The target in assay [17] is HIV-1 Env of isolate MGRM-F1-014 (subtype F) (HIV-1).
The target of assay [18] is HIV-1 Env of isolate MGRM-F1-015 (subtype F) (HIV-1).
Assay [19] deals with HIV-1 92UG024 Env (pseudovirus) (HIV-1).
For assay [20], the target named is HIV-1 93IN905 Env (pseudovirus) (HIV-1).
The target of assay [21] is HIV-1 JRFL Env (pseudovirus) (HIV-1).
The target of assay [22] is HIV-1 MGRM-A-010 Env (pseudovirus) (HIV-1).
Assay [23] addresses HIV-1 MGRM-D-018 Env (pseudovirus) (HIV-1).
Assay [24] has as its target HIV-1 JR-CSF Env E321aA (HIV-1 (isolate JR-CSF, clade B)) (UniProt P20871).
In assay [25] the target is HIV-1 94UG103 Env (HIV-1 isolate 94UG103 (clade A)).
In assay [26] the target is HIV-1 APV13 Env (HIV-1 isolate APV13 (clade B)).
Assay [27] has as its target HIV-1 APV17 Env (HIV-1 isolate APV17 (clade B)).
For assay [28], the target named is HIV-1 MGRM-D-001 Env (HIV-1 isolate MGRM-D-001 (clade D)).
For assay [29], the target named is HIV-1 MGRM-D-018 Env (HIV-1 isolate MGRM-D-018 (clade D)).

Chain of 5329_C19 (PGT-136) (antibody) (VH): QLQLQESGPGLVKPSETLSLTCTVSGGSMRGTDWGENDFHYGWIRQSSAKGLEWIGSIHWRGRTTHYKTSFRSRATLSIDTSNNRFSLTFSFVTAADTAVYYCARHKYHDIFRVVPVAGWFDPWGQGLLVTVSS
Chain of 5329_C19 (PGT-136) (antibody) (VL): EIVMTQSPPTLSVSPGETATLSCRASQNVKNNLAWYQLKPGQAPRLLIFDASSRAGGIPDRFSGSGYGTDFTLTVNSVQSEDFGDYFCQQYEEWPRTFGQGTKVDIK
Chain of 1443_C16 (PG16) (TCN-116) (antibody) (VH): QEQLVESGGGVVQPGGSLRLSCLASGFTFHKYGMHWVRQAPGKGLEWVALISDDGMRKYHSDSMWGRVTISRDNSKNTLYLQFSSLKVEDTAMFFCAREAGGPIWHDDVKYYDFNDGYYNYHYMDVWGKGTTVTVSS
Chain of 1443_C16 (PG16) (TCN-116) (antibody) (VL): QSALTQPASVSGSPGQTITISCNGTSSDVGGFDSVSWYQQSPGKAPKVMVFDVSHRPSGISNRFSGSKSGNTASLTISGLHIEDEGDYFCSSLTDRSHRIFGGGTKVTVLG

In assay [1], 5329_C19 (PGT-136) (antibody) yielded a Neutralization IC80 above 10 µg/mL, a Neutralization IC90 above 10 µg/mL, a Neutralization IC95 above 10 µg/mL and a neutralization IC50 above 10 µg/mL. In assay [2], this substance yielded a Neutralization IC80 above 10 µg/mL, a Neutralization IC90 above 10 µg/mL, a Neutralization IC95 above 10 µg/mL and a neutralization IC50 above 10 µg/mL. In [3], this substance returned a Neutralization IC80 above 10 µg/mL, a Neutralization IC90 above 10 µg/mL, a Neutralization IC95 above 10 µg/mL and a neutralization IC50 above 10 µg/mL.

Consider 4877_D15 (PGT-122) (antibody), for which the Neutralization IC80 in assay [4] was 0.0929 µg/mL; in [5] it was 0.0407 µg/mL; in assay [6] it was above 10 µg/mL; in assay [7] it was 6.58 µg/mL; in [8], 0.245 µg/mL; in assay [9] it was 0.035 µg/mL. In addition, the Neutralization IC90 is 0.168 µg/mL in assay [4]; 0.113 µg/mL in assay [5]; above 10 µg/mL in assay [6]; above 10 µg/mL in [7]; 0.494 µg/mL in [8]; 0.0674 µg/mL in [9]. Moreover, the Neutralization IC95 in assay [4] was 0.289 µg/mL; in assay [5], 0.289 µg/mL; in assay [6], above 10 µg/mL; in assay [7], above 10 µg/mL; in assay [8], 0.926 µg/mL; in assay [9], 0.125 µg/mL. For the same substance, the neutralization IC50 in [4] was 0.0337 µg/mL; in assay [5] it was 0.0072 µg/mL; in assay [6], above 10 µg/mL; in [7] it was 1.46 µg/mL; in assay [8], 0.0727 µg/mL; in [9] it was 0.0115 µg/mL.

As for 4858_P08 (PGT-123) (antibody), in assay [10], the IC50, pseudovirus neutralization came to 0.846 µg/mL; the IC80 (pseudovirus neutralization) turned out to be 3.29 µg/mL; the IC90 (pseudovirus neutralization) came to 8.56 µg/mL; the IC95 (pseudovirus neutralization) is above 10 µg/mL. Also, in assay [11], the IC50, pseudovirus neutralization was above 10 µg/mL; the IC80 (pseudovirus neutralization) was above 10 µg/mL; the IC90 (pseudovirus neutralization) is above 10 µg/mL; the IC95 (pseudovirus neutralization) was above 10 µg/mL. In assay [12], this substance gave an IC50, pseudovirus neutralization above 10 µg/mL; an IC80 (pseudovirus neutralization) above 10 µg/mL; an IC90 (pseudovirus neutralization) above 10 µg/mL; an IC95 (pseudovirus neutralization) above 10 µg/mL.

In [13], 1496_C09 (PG9) (TCN-109) (antibody) had a Neutralization IC80 of 1.95 µg/mL, a Neutralization IC90 of 5.54 µg/mL and a neutralization IC50 of 0.31 µg/mL.

1443_C16 (PG16) (TCN-116) (antibody): the IC50, pseudovirus neutralization (TZM-bl assay) in assay [14] is below 0.01 µg/mL.

In [15], 5141_B17 (PGT-126) (antibody) showed a Neutralization IC80 of 0.0454 µg/mL, a Neutralization IC90 of 0.09 µg/mL, a Neutralization IC95 of 0.169 µg/mL and a neutralization IC50 of 0.014 µg/mL.

With PGV04 (antibody), the figures for the IC50 (µg/mL), pseudovirus neutralization in assay [16], in assay [17] and in [18] were 0.44 µg/mL, 0.02 µg/mL and 0.179 µg/mL, respectively.

Take 5123_A06 (PGT-125) (antibody): the Neutralization by PGT-125, IC50 in [19] was above 10 µg/mL; in [20], 0.0137 µg/mL; in assay [21], 0.0156 µg/mL; in [22], 0.0055 µg/mL; in assay [23] it was 0.0382 µg/mL. Besides, the Neutralization by PGT-125, IC80 in assay [19] was above 10 µg/mL; in assay [20], 0.0494 µg/mL; in [21], 0.0462 µg/mL; in assay [22], 0.024 µg/mL; in assay [23] it was 0.144 µg/mL. In addition, the Neutralization by PGT-125, IC90 was above 10 µg/mL in assay [19]; 0.106 µg/mL in assay [20]; 0.0873 µg/mL in assay [21]; 0.0575 µg/mL in assay [22]; 0.339 µg/mL in [23]. The Neutralization by PGT-125, IC95 in assay [19] was above 10 µg/mL; in [20] it was 0.216 µg/mL; in assay [21], 0.157 µg/mL; in [22] it was 0.131 µg/mL; in assay [23], 0.892 µg/mL.

In the case of 5136_H01 (PGT-131) (antibody), the Fold IC50 increase relative to wild-type in assay [24] stood at 1.8 fold.

In the case of 4838_L06 (PGT-121) (antibody), the Neutralization IC80 stood at 8.85 µg/mL in assay [25]; 1.31 µg/mL in [26]; 0.371 µg/mL in assay [27]; 3.29 µg/mL in [28]; 0.0231 µg/mL in assay [29]. Also, the Neutralization IC90 in assay [26] stood at 2.8 µg/mL; in [27], 0.799 µg/mL; in assay [28], 6.26 µg/mL; in assay [29], 0.0414 µg/mL. Moreover, the Neutralization IC95 in assay [26] was 5.15 µg/mL; in assay [27] it was 1.55 µg/mL; in [28] it was 9.39 µg/mL; in assay [29], 0.0715 µg/mL.
